What was measured:
[1] = molecular target: T1, Zymomonas mobilis glucose 6-phosphate dehydrogenase EC 1.1.1.49 (Zymomonas mobilis subsp. mobilis, UniProt P21907); type: biochemical; details: assay conditions: 25° C., 50 mM Tris-Cl buffer, pH 8.0
T1 construct: endogenous in cells; host or cells: Zymomonas mobilis cells (enzyme extracted and purified from the organism itself)
T1 sequence (P21907 1-485): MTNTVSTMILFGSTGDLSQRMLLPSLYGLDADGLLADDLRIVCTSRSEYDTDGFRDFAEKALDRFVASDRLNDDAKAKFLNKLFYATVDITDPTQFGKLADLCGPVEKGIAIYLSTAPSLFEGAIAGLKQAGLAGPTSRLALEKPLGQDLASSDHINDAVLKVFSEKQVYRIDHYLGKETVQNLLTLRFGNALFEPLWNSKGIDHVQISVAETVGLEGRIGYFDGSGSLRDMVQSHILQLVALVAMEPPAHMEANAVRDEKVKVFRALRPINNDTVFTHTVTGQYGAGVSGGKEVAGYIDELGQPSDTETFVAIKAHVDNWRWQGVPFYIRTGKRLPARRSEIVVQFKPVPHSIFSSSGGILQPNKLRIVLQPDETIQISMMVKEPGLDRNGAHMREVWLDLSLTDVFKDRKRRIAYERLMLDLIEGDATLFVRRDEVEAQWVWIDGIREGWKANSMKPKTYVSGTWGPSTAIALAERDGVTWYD

[2] = molecular target: T2, Zymomonas mobilis fructokinase EC 2.7.1.4 (Zymomonas mobilis subsp. mobilis, UniProt Q03417); experiment: Kinetic properties, sugar specificity and glucose inhibition of purified fructokinase; type: biochemical
T2 construct: endogenous in cells; host or cells: Zymomonas mobilis cells (enzyme extracted and purified from the organism itself)
T2 sequence (Q03417 1-301): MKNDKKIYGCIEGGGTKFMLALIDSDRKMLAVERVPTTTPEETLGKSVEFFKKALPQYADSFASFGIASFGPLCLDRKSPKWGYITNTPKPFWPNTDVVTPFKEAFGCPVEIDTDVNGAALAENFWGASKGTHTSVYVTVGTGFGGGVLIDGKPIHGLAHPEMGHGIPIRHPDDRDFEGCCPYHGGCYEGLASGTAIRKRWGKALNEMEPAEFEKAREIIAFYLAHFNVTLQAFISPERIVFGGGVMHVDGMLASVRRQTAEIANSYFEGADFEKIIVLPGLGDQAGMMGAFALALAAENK
Excerpt: The active enzyme may be concentrated by ultrafiltration and stored frozen or freeze-dried.

[3] = substrate: Nc1ncnc2c1ncn2[C@@H]1O[C@H](COP(=O)(O)OP(=O)(O)OP(=O)(O)O)[C@@H](O)[C@H]1O; experiment: purified protein, by the assay type; type: biochemical, Zymomonas mobilis; details: other: assay conditions printed: 50 mM K-morpholino propane sulphonate buffer, 30 mM NaCl, 2 mM MgCl2 pH 6.8
[4] = substrate: O=C(CO)[C@@H](O)[C@H](O)[C@H](O)CO; experiment: purified protein, by the assay type; type: biochemical, Zymomonas mobilis; details: other: assay conditions printed: 50 mM K-morpholino propane sulphonate buffer, 30 mM NaCl, 2 mM MgCl2 pH 6.8
[5] = substrate: Nc1ncnc2c1ncn2[C@@H]1O[C@H](COP(=O)(O)OP(=O)(O)OP(=O)(O)O)[C@@H](O)[C@H]1O; experiment: Kinetic properties and sugar specificity of purified glucokinase; type: biochemical, Zymomonas mobilis; details: other: approximate values, assay conditions: 25° C., 50 mM K-Morpholinopropane sulphonate, 30 mM NaCl, 2 mM MgCl2, pH 6.8
[6] = substrate: OC[C@H]1OC(O)[C@H](O)[C@@H](O)[C@@H]1O; experiment: purified protein, by the assay type; details: other: approximate values, assay conditions: 25° C., 50 mM K-Morpholinopropane sulphonate, 30 mM NaCl, 2 mM MgCl2, pH 6.8, pH 6.8
[7] = substrate: NC(=O)c1ccc[n+]([C@@H]2O[C@H](COP(=O)([O-])OP(=O)(O)OC[C@H]3O[C@@H](n4cnc5c(N)ncnc54)[C@H](OP(=O)(O)O)[C@@H]3O)[C@@H](O)[C@H]2O)c1; experiment: purified protein, by the assay type; details: other: assay conditions printed: 25° C., 50 mM Tris-Cl buffer, pH 8.0, pH 8.0
[8] = substrate: NC(=O)c1ccc[n+]([C@@H]2O[C@H](COP(=O)([O-])OP(=O)(O)OC[C@H]3O[C@@H](n4cnc5c(N)ncnc54)[C@H](O)[C@@H]3O)[C@@H](O)[C@H]2O)c1; experiment: purified protein, by the assay type; type: biochemical, Zymomonas mobilis; details: other: assay conditions printed: 25° C., 50 mM Tris-Cl buffer, pH 8.0

glucose 6-phosphate [glucose 6-phosphate dehydrogenase]
Km [1]: 170 µM

OC[C@H]1OC(O)[C@H](O)[C@@H](O)[C@@H]1O (stereo partly drawn) [glucose]
Ki ([2]; competitive inhibitor with fructose): 200 µM | enzyme activity in the presence of glucose ([2]; glucose at 5-10 mM or more, low levels of fructose): essentially inactive

B1: Zymomonas mobilis fructokinase EC 2.7.1.4 (Zymomonas mobilis subsp. mobilis ZM4 = ATCC 31821) (protein)
chain: MKNDKKIYGCIEGGGTKFMLALIDSDRKMLAVERVPTTTPEETLGKSVEFFKKALPQYADSFASFGIASFGPLCLDRKSPKWGYITNTPKPFWPNTDVVTPFKEAFGCPVEIDTDVNGAALAENFWGASKGTHTSVYVTVGTGFGGGVLIDGKPIHGLAHPEMGHGIPIRHPDDRDFEGCCPYHGGCYEGLASGTAIRKRWGKALNEMEPAEFEKAREIIAFYLAHFNVTLQAFISPERIVFGGGVMHVDGMLASVRRQTAEIANSYFEGADFEKIIVLPGLGDQAGMMGAFALALAAENK
notes: endogenous in cells; host or cells: Zymomonas mobilis cells (enzyme extracted and purified from the organism itself)
Km [3]: 400 µM | Km [4]: 500 µM

B2: Zymomonas mobilis glucokinase EC 2.7.1.2 (Zymomonas mobilis subsp. mobilis ZM4 = ATCC 31821) (protein)
chain: MEIVAIDIGGTHARFSIAEVSNGRVLSLGEETTFKTAEHASLQLAWERFGEKLGRPLPRAAAIAWAGPVHGEVLKLTNNPWVLRPATLNEKLDIDTHVLINDFGAVAHAVAHMDSSYLDHICGPDEALPSDGVITILGPGTGLGVAHLLRTEGRYFVIETEGGHIDFAPLDRLEDKILARLRERFRRVSIERIISGPGLGNIYEALAAIEGVPFSLLDDIKLWQMALEGKDNLAEAALDRFCLSLGAIAGDLALAQGATSVVIGGGVGLRIASHLPESGFRQRFVSKGRFERVMSKIPVKLITYPQPGLLGAAAAYANKYSEVE
notes: Glucokinase so obtained is almost homogenous by electrophoretic criteria; endogenous in cells; host or cells: Zymomonas mobilis cells (enzyme extracted and purified from the organism itself)
Km [5]: 800 µM | Km [6]: 200 µM

B3: Zymomonas mobilis glucose 6-phosphate dehydrogenase EC 1.1.1.49 (Zymomonas mobilis subsp. mobilis ZM4 = ATCC 31821) (protein)
chain: MTNTVSTMILFGSTGDLSQRMLLPSLYGLDADGLLADDLRIVCTSRSEYDTDGFRDFAEKALDRFVASDRLNDDAKAKFLNKLFYATVDITDPTQFGKLADLCGPVEKGIAIYLSTAPSLFEGAIAGLKQAGLAGPTSRLALEKPLGQDLASSDHINDAVLKVFSEKQVYRIDHYLGKETVQNLLTLRFGNALFEPLWNSKGIDHVQISVAETVGLEGRIGYFDGSGSLRDMVQSHILQLVALVAMEPPAHMEANAVRDEKVKVFRALRPINNDTVFTHTVTGQYGAGVSGGKEVAGYIDELGQPSDTETFVAIKAHVDNWRWQGVPFYIRTGKRLPARRSEIVVQFKPVPHSIFSSSGGILQPNKLRIVLQPDETIQISMMVKEPGLDRNGAHMREVWLDLSLTDVFKDRKRRIAYERLMLDLIEGDATLFVRRDEVEAQWVWIDGIREGWKANSMKPKTYVSGTWGPSTAIALAERDGVTWYD
notes: as for B1
Km [7]: 40 µM | Km [8]: 210 µM

From US4623625A, “Enzyme extraction and purification processes” (priority 1983, dated 1986)
